For this experiment, the target named is T1, MLO-Y4 cell surface proteins (Mus musculus, UniProt P70388).
T1 construct: endogenous in cells; host or cells: MLO-Y4
T1 sequence (P70388 1-1312): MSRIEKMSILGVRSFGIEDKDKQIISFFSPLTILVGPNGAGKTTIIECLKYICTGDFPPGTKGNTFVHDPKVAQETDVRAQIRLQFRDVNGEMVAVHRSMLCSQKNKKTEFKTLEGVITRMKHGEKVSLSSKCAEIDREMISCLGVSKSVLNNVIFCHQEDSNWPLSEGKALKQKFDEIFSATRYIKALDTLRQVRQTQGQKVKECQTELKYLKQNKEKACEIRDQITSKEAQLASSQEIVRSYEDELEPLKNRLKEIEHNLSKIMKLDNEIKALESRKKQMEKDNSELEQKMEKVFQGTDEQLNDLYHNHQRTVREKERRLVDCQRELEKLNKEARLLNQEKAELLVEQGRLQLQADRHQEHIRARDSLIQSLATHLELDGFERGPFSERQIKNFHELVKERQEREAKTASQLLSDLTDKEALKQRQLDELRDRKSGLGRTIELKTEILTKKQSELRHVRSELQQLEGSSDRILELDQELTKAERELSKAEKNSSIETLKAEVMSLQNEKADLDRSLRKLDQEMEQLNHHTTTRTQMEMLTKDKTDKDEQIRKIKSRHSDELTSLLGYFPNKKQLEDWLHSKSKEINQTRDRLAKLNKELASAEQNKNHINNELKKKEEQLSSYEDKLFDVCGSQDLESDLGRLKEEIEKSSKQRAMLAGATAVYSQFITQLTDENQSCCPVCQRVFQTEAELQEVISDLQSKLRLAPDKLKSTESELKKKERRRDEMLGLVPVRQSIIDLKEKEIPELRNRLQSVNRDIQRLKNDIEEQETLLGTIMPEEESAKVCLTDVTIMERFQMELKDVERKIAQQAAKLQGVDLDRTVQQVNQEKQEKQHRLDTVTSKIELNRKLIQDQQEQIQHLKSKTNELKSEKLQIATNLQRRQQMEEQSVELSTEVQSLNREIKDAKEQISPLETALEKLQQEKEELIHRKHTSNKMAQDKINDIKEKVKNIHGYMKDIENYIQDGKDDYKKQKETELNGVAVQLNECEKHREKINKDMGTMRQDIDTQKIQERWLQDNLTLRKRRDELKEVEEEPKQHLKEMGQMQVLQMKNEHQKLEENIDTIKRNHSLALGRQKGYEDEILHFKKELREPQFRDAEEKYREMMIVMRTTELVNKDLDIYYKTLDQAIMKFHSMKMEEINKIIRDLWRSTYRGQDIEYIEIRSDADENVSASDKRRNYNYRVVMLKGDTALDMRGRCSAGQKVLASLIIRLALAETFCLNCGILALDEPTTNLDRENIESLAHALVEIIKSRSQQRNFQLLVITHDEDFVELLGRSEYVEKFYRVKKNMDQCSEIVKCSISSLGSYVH
Nature of the experiment: Crosslinking/co-immunoprecipitation/mass spectrometry (TMT quantitative proteomics) to identify irisin receptors. The format is binding. To be noted: co-precipitated protein Rad50 (RAD50_MOUSE). The essentials:
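Mouse MLO-Y4 cells were switched to serum-free FreeStyle medium for 4 h, chilled, then exposed to 10 nM His-tagged irisin (or adipsin as control) for 20 min. Cells were crosslinked with 1.5 mM DTSSP (30 min, ice), and bound proteins were pulled down on Ni-NTA and eluted with 250 mM imidazole. Eluates were separated by SDS-PAGE, trypsin-digested in gel, TMT 6-plex labelled and quantified by MS3-based LC-MS/MS on an Orbitrap Fusion Lumos.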

In the case of adipsin, the TMT signal-to-noise ratio came to 422.246.

The values above are taken from US20210063414A1, “METHODS FOR PREVENTING AND/OR TREATING BONE LOSS CONDITIONS BY MODULATING IRISIN” (Dana-Farber Cancer Institute, Inc., priority 2018, published 2021).
